Test results as given in patent US11549134B2, “Modified amadoriase and method for producing the same, agent for improving surfactant resistance of amadoriase and composition for measuring HbA1c using the same” (Kikkoman Corporation, priority 2013, dated 2023).

Tests used:
Type in all cases: biochemical
[1] = Surfactant resistance (residual activity) of CFP-D multiple variants, 0.04% CTAC; settings: 30°C, 5 minutes, crude enzyme
Procedure: An amadoriase crude enzyme solution or an amadoriase purified sample is diluted with a 30 mM MES/21 mM Tris buffer solution (pH6.5) so as to have a concentration of about 1.0 U/ml. To this, CTAC (for example, manufactured by Tokyo Kasei Kogyo Co., Ltd.) is added so as to obtain a final concentration 0.01% (w/v) or 0.04%. The resultant mixture is heated at 30° C. for 5 minutes. After heating, the mixture is diluted double with a 10 mM phosphate buffer (pH7.0) containing 0.15% BSA to prepare a sample. The enzyme activities of the sample before and after a surfactant treatment are measured by the method described in Section B above. The ratio of activity of the sample after the surfactant treatment relative to the activity of the sample before the surfactant treatment (regarded as 100), i.e., the residual activity (%), is obtained. In this manner, surfactant resistance is evaluated. […]

[2] = Surfactant resistance (residual activity) of purified enzymes with various surfactants; settings: 20 mM potassium phosphate pH 7.0, purified enzyme
Procedure: An amadoriase crude enzyme solution or an amadoriase purified sample is diluted with a 30 mM MES/21 mM Tris buffer solution (pH6.5) so as to have a concentration of about 1.0 U/ml. To this, CTAC (for example, manufactured by Tokyo Kasei Kogyo Co., Ltd.) is added so as to obtain a final concentration 0.01% (w/v) or 0.04%. The resultant mixture is heated at 30° C. for 5 minutes. After heating, the mixture is diluted double with a 10 mM phosphate buffer (pH7.0) containing 0.15% BSA to prepare a sample. The enzyme activities of the sample before and after a surfactant treatment are measured by the method described in Section B above. The ratio of activity of the sample after the surfactant treatment relative to the activity of the sample before the surfactant treatment (regarded as 100), i.e., the residual activity (%), is obtained. In this manner, surfactant resistance is evaluated.
Using various surfactants, the stability of the purified enzymes CFP-T7, CFP-D2, and CFP-D7 obtained as described above was evaluated. The surfactant resistance of the modified amadoriases was evaluated in accordance with a measurement method for surfactant resistance according to Example 1 although under surfactant treatment conditions in which the amadoriases were each diluted in a 20 mM potassium phosphate buffer solution (pH 7.0) and mixed with any of various concentrations of the surfactants. In this respect, it was confirmed that when the warmed sample was again measured for activity 30 minutes after 2-fold dilution in a BSA solution, there was no change in the activity value.

[3] = Surfactant resistance (residual activity), 0.04% SDS; settings: 30 mM MES/21 mM Tris buffer (pH 6.5)
Procedure: An amadoriase crude enzyme solution or an amadoriase purified sample is diluted with a 30 mM MES/21 mM Tris buffer solution (pH6.5) so as to have a concentration of about 1.0 U/ml. To this, CTAC (for example, manufactured by Tokyo Kasei Kogyo Co., Ltd.) is added so as to obtain a final concentration 0.01% (w/v) or 0.04%. The resultant mixture is heated at 30° C. for 5 minutes. After heating, the mixture is diluted double with a 10 mM phosphate buffer (pH7.0) containing 0.15% BSA to prepare a sample. The enzyme activities of the sample before and after a surfactant treatment are measured by the method described in Section B above. […] In this manner, surfactant resistance is evaluated.
The stability of CFP-D was evaluated using sodium dodecyl sulfate (hereinafter indicated with “SDS”) in place of the surfactant CTAC used in Example 2. The surfactant resistance of the modified amadoriases was evaluated in accordance with a measurement method for surfactant resistance according to Example 1 although under surfactant treatment conditions in which the amadoriases were each diluted in a 30 mM MES/21 mM Tris buffer solution (pH 6.5) and mixed with 0.04% SDS. In this respect, it was confirmed that when the warmed sample was again measured for activity 30 minutes after 2-fold dilution in a BSA solution, there was no change in the activity value.

B1: CFP-T7: amadoriase derived from the genus Coniochaeta, SEQ ID NO: 1; triple variant with mutations at positions 272, 302 and 388 (protein, listed as Coniochaeta sp.)
chain: MTSNRADTRVIVVGGGGTIGSSTALHLVRSGYAPANITVLDTFEIPSAQSAGHDLNKIMGIRLRNKVDLQMSLEARQMWKEDELFQPFFHNTGRMDCEHTPEGIEDLKKQYQALHDAGAGLEKTHAWLDNEDEILSKMPLLQRDQIQGWKAIWSQDGGWLAAAKAINAIGQFLKERGVKFGFGGAGSFKQPLFDDEGTTCIGVETADGTKYYADKVVLAAGAWSPTLVDLEDQCCSKAWVYAHIQLTPEEAAEYKGVPVVYNGEFGFFFEPDEFGVIKVCDEFPGFSRFKEHQPYGAPSPKRISVPRSHAKHPTDTYPDASEVSIKKAIATFLPRFQDKELFNRALCWCTDTADAALLMCEHPKWKNFILATGDSGHSFKILPNVGKYVVELIEGRLPEEMAYQWRWRPGGDALKSRRAAPPKDLADMPGWKHDPKL
- Residual Activity(%) [1]: 2.27%
- Residual Activity(%) ([2]; Benzylcetyldimethyl ammonium Chloride (BCDAC) 0.04%): 1.4%
- Residual Activity(%) ([2]; Benzyldodecyldimethyl ammonium Bromide (BDDAB) 0.10%): 1.4%
- Residual Activity(%) ([2]; Benzyltetradecyldimethyl ammonium Chloride (BDTAC) 0.04%): 0.7%
- Residual Activity(%) ([2]; Dodecylpyridinium Chloride (1-DPC) 0.16%): 3.4%
- Residual Activity(%) ([2]; Dodecyltrimethylammonium Bromide (DTAB) 0.30%): 12.2%
- Residual Activity(%) ([2]; Hexadecylpyridinium Bromide (1-CPB) 0.04%): 0.7%
- Residual Activity(%) ([2]; Hexadecylpyridinium Chloride (1-CPC) 0.04%): 1.4%
- Residual Activity(%) ([2]; Hexadecyltrimethylammonium Chloride (CTAC) 0.04%): 2.3%
- Residual Activity(%) ([2]; N-Cetyl-4-methylpyridinium Chloride (4Me-1-CPC) 0.04%): 1.5%
- Residual Activity(%) ([2]; Octadecyltrimethylammonium Bromide (STAB) 0.01%): 59.7%
- Residual Activity(%) ([2]; Octadecyltrimethylammonium Chloride (STAC) 0.02%): 49.3%
- Residual Activity(%) ([2]; Octyltrimethylammonium Bromide (OTAB) 0.80%): 87.7%
- Residual Activity(%) ([2]; Octyltrimethylammonium Chloride (OTAC) 1.20%): 94.1%
- Residual Activity(%) ([2]; Tetradecyltrimethylammonium Bromide (TTAB) 0.04%): 31.7%
- Residual Activity(%) ([2]; Tetradecyltrimethylammonium Chloride (TTAC) 0.04%): 4.1%
- Residual Activity(%) ([2]; Tributylhexadecyl phosphonium Bromide (TBCPB) 0.04%): 3.1%
- Residual Activity(%) [3]: 2.76%
